This note sets out measurements from article PMC8396674.

Assay in all cases: AUC; sedimentation velocity, 0.25 mg/mL (14.7 µM) protein with 7-fold molar excess of TbCl3, 20 °C, 50,000 rpm, c(s) analysis
The target of assay [1] is gC1q domain of human otolin-1 (hOtolC1q), wild type (human).
The target in assay [2] is gC1q domain of human otolin-1, natural variant R339S (human).
Assay [3] concerns the target gC1q domain of human otolin-1, natural variant Q426R (human).

Take “gC1q domain of human otolin-1 (hOtolC1q), wild type (domain or fragment)”: the stoichiometry N (as a rule, the number of molecules, sites or subunits per partner or assembly) in assay [1] stood at 3.
As for “gC1q domain of human otolin-1, natural variant R339S (domain or fragment)”, the stoichiometry N in assay [2] was found to be 3.
“gC1q domain of human otolin-1, natural variant Q426R (domain or fragment)” returned a stoichiometry N in assay [3] of 3.
